Measured values reported in the Human Domainome abundance scans (Beltran et al. 2025).

B1: Probable E3 ubiquitin-protein ligase MID2, residues 191 to 235; numbered along this chain, Q9UJV3 (parent)
chain: RGITCLDHENEKVNMYCVSDDQLICALCKLVGRHRDHQVASLNDR

Variants of: B1
Assay: abundance fitness (aPCA) (normalised: wild type 0, dead -1); higher = more abundant; growth selection in yeast, the domain comes from the species named
Conditions: Homo sapiens

Abundance fitness: each site, then its substitutions
V31: T 0.131 | M -0.104 | Y -0.117 | K 0.131 | Q 0.152 | F -0.046 | N 0.184 | G 0.107
C5: M -0.462 | W -0.706 | D -0.39 | V -0.589 | E -0.307
L23: R 0.023 | H -0.074 | C 0.049 | S -0.009
K12: W -0.229 | I -0.244 | Q -0.103 | P 0.124 | D -0.012 | C -0.389 | V -0.083 | E 0.104 | R -0.042
N10: P -0.414 | S -0.156 | E -0.55 | Q -0.313 | G -0.198 | W -0.394 | K -0.226
H34: G -0.383 | S -0.387 | L -1.13 | P -0.66 | A -0.48 | D -0.66 | W -0.997 | M -0.677 | F -0.184 | K -0.402 | Q -0.319 | T -0.473 | R -0.459
E11: S -0.236 | P -0.838 | M -0.174 | C -0.063
T4: D -0.16 | L -0.376 | F 0.001 | G -0.217 | E -0.209 | Y 0.133 | A -0.238 | Q -0.257 | R -0.205
K29: I -0.037 | E -0.039 | D -0.211 | C -0.144 | G 0.097 | Q -0.016 | N 0.153 | S 0.059 | H -0.032
V13: S -0.092 | R -0.077 | E -0.215 | I 0.1 | G -0.143
R45: H 0.256 | Q 0.033 | L -0.253 | A 0.178 | W -0.164 | S 0.084 | P 0.041 | T -0.04 | C 0.018 | G 0.15
H8: V -0.809 | L -0.703 | E -0.47 | I -0.976 | R -0.655 | M -0.588 | D -0.335
E9: C 0.028 | V -0.299 | M 0.022 | Q 0.021 | N 0.056 | D 0.017 | I -0.128 | P 0.173
G2: K 0.042 | C -0.511 | L -0.218 | P -0.222 | W -0.403 | R -0.033
A40: Y -0.2 | M -0.216 | G 0.003 | F -0.176 | K -0.138
I24: V 0.058 | Q -0.006 | K -0.105 | D -0.121 | E -0.141 | M -0.104 | T -0.122 | H -0.197
Y16: M -0.321 | H -0.114 | W -0.039 | K 0.54 | T -0.392 | R 0.183 | G 0.024
I3: D 0.123 | Y 0.072 | C -0.101 | H -0.195 | N 0.162 | L -0.167
N43: K 0.164 | C -0.097 | V -0.042 | W -0.405 | S -0.022 | I -0.275 | L -0.126 | E 0.192
M15: D 0.001 | C 0.259 | Q 0.166 | G 0.081 | L 0.003 | F -0.069
L27: I -0.466 | P -0.215 | D -0.029 | F 0.099 | Q 0.263 | E 0.144 | K 0.517 | T -0.144 | W -0.145 | M -0.012
G32: E -0.248 | M -0.899 | W -0.954 | T -0.339 | A -0.518 | S -0.408 | I -0.459
Q38: E 0.105 | P -0.092 | N -0.104 | A -0.113 | R -0.002 | L -0.259 | D 0.117
D36: P -0.311 | C -0.278 | E 0.036 | V -0.3
A26: D 0.13 | Q -0.017 | P -0.018 | K -0.051 | L -0.296 | I -0.621 | V -0.174 | R 0.006 | M -0.359 | S -0.006
D21: M -0.316 | H -0.283 | K 0.011 | E -0.056 | A -0.081 | N 0.031 | V -0.585 | L -0.526
S41: R -0.039 | A -0.08 | P 0.061 | C -0.071 | V -0.298 | N 0.1 | K -0.102 | W -0.458 | H -0.135
V18: G 0.011 | K 0.079 | P -0.025 | D 0.065
R33: K 0.084 | I -0.106 | C -0.28 | Q -0.006 | F -0.764 | W -0.39 | T -0.024
D7: S -0.173 | R -0.238 | Y -0.112 | W -0.294 | M -0.239 | T -0.223 | C -0.192 | G -0.364 | N -0.107
S19: Y -0.296 | T 0.049 | K -0.049 | G -0.005 | M -0.067 | V -0.032 | L -0.08
V39: G -0.191 | W -0.23 | K -0.449 | M -0.129 | Y -0.335 | R -0.319
L42: R -0.095 | P -0.363 | V -0.016 | M -0.031 | F -0.133 | K -0.054 | N 0.045 | E 0.091 | W -0.198
L30: P -0.136 | W -0.095 | V 0.003 | T 0.089 | F -0.022 | M 0.003
L6: E 0.151 | T 0.14 | G 0.039 | W -0.253 | P 0.156 | A 0.145 | M 0.072
C17: R -0.304 | G -0.129 | K -0.01 | W -0.792 | T -0.269 | Y -0.635 | V -0.486 | P -0.319 | M -0.517
D44: W -0.472 | Y -0.285 | Q -0.234
H37: L -0.584 | M -0.684 | I -1.04 | A -0.313 | Q -0.365 | R -0.492
R1: V -0.195 | L -0.194 | Q 0.069 | A -0.158 | W -0.502 | M -0.044 | H -0.081 | E 0.019 | G -0.04 | Y -0.807 | I -0.17
N14: L -0.124 | V -0.055 | Q 0.119 | S 0.06 | E 0.104 | R -0.087 | P -0.434
R35: A 0.064 | I 0.303 | G -0.002 | M -0.024 | C -0.126 | D -0.242 | H -0.471 | V -0.05 | F -0.529 | K 0.019
C28: T -0.541 | V -1.11 | W -0.997 | Q -0.505 | K -0.906 | S -0.678 | M -0.942
D20: M -1.19 | H -0.459 | G -0.589 | N -0.456 | Y -1.43 | T -0.706 | P -0.625
Q22: I -0.259 | P -0.381 | V -0.012 | Y -0.264 | R 0.1 | W -0.515 | K 0.05 | M 0.054 | S 0.049 | T -0.062 | E -0.113
C25: T -0.526 | L -1.34 | A -1.12 | D -0.834 | G -0.805 | P -0.417 | W -1.92 | V -1.03 | K -0.951
